The subject of one data set is CHO-S cells. Briefly: Western blot analysis of PH20 expression in media and cells after transient expression. The settings on record: media versus cells. The format is cell-based, Chinese Hamster. Here is the method:
The mutant PH20-HZ24 plasmids generated in Example 1 were transiently […] into CHO—S cells (derived from Chinese Hamster Ovary CHO K1 cells) using GeneJuice® (Novagen) according to the manufacturer's instructions. In short, the CHO—S cells were grown in CD CHO medium supplemented with L-glutamine. Prior to transfection, the CHO—S cells were plated in 6-well plates, with approximately 5×10^5 cells per well, and grown overnight at 37° C. with 5% CO2. The medium was then removed and the CHO—S cells were washed 2 times with 1 mL serum-free medium. GeneJuice® was mixed with serum-free media followed by the addition of 2 μg mutant-HZ24 DNA. After incubating at room temperature for 5-15 minutes, the GeneJuice®/DNA mixture was added dropwise to an individual well containing the washed CHO—S cells. After 4 hours, the medium was replaced with 1 mL CD-CHO medium supplemented with L-glutamine and the cells were incubated for 72 hours at 37° C. with 5% CO2. Following expression, the media and cells were harvested separately.
The mutant PH20-HZ24 plasmids generated in Example 1 were transiently […] into CHO—S cells using GeneJuice® (Novagen) according to the manufacturer's instructions. […]
In this example, following transient expression, as described in Example 2 above, the media and cells were harvested separately and analyzed for PH20 expression and solublility by Western blot analysis. Solubility of the C-terminus truncation mutants was determined by examining whether the expressed protein was present in the growth media or in the cells. […] Cells expressing these mutants were treated with phosphoinositol-phospholipase C (PI-PLC), which cleaves the GPI-anchor allowing the release of soluble protein into the media, and the presence of PH20 in the resulting media and cells was determined by Western blot analysis.
Non-reduced samples were run on a 4-20% Tris-Glycine gel and transferred to PVDF membrane using iBlot (Invitrogen). For the Western blot, rabbit anti-PH20 IgG (0.5 μg/mL) was used as the primary antibody and HRP-conjugated goat anti-rabbit IgG (0.1 ng/mL, Cat#DC03L, EMD) was used as the secondary antibody. Evidence of expression is determined by a band at approximately 66 kDa, corresponding to recombinant human PH20 hyaluronidase.

Data set [1] is described as follows: Microtiter hyaluronidase activity assay with biotinylated-hyaluronic acid. The format is biochemical. The settings on record: Table 6, 72 hour post transfection supernatant.

B1: SPAM1-GVCI: C-terminally truncated human PH20, precursor 465 aa (SEQ ID NO:35), mature 430 aa (SEQ ID NO:87) (protein, listed as Homo sapiens)
chain 1: MGVLKFKHIFFRSFVKSSGVSQIVFTFLLIPCCLTLNFRAPPVIPNVPFLWAWNAPSEFCLGKFDEPLDMSLFSFIGSPRINATGQGVTIFYVDRLGYYPYIDSITGVTVNGGIPQKISLQDHLDKAKKDITFYMPVDNLGMAVIDWEEWRPTWARNWKPKDVYKNRSIELVQQQNVQLSLTEATEKAKQEFEKAGKDFLVETIKLGKLLRPNHLWGYYLFPDCYNHHYKKPGYNGSCFNVEIKRNDDLSWLWNESTALYPSIYLNTQQSPVAATLYVRNRVREAIRVSKIPDAKSPLPVFAYTRIVFTDQVLKFLSQDELVYTFGETVALGASGIVIWGTLSIMRSMKSCLLLDNYMETILNPYIINVTLAAKMCSQVLCQEQGVCIRKNWNSSDYLHLNPDNFAIQLEKGGKFTVRGKPTLEDLEQFSEKFYCSCYSTLSCKEKADVKDTDAVDVCIADGVCI
chain 2: LNFRAPPVIPNVPFLWAWNAPSEFCLGKFDEPLDMSLFSFIGSPRINATGQGVTIFYVDRLGYYPYIDSITGVTVNGGIPQKISLQDHLDKAKKDITFYMPVDNLGMAVIDWEEWRPTWARNWKPKDVYKNRSIELVQQQNVQLSLTEATEKAKQEFEKAGKDFLVETIKLGKLLRPNHLWGYYLFPDCYNHHYKKPGYNGSCFNVEIKRNDDLSWLWNESTALYPSIYLNTQQSPVAATLYVRNRVREAIRVSKIPDAKSPLPVFAYTRIVFTDQVLKFLSQDELVYTFGETVALGASGIVIWGTLSIMRSMKSCLLLDNYMETILNPYIINVTLAAKMCSQVLCQEQGVCIRKNWNSSDYLHLNPDNFAIQLEKGGKFTVRGKPTLEDLEQFSEKFYCSCYSTLSCKEKADVKDTDAVDVCIADGVCI
modifications: HuPH20 precursor 1-465; Mature HuPH20 36-465
For B1, the “Expressed in Media” value with CHO-S cells is “YES”. In data set [1], the “pH 5.5 Activity” value turned out to be 0.468 Units/ml and the “pH 7.4 Activity” value worked out at 0.441 Units/ml.

B2: SPAM1-VCID: C-terminally truncated human PH20, precursor 466 aa (SEQ ID NO:34), mature 431 aa (SEQ ID NO:86) (protein, listed as Homo sapiens)
chain 1: MGVLKFKHIFFRSFVKSSGVSQIVFTFLLIPCCLTLNFRAPPVIPNVPFLWAWNAPSEFCLGKFDEPLDMSLFSFIGSPRINATGQGVTIFYVDRLGYYPYIDSITGVTVNGGIPQKISLQDHLDKAKKDITFYMPVDNLGMAVIDWEEWRPTWARNWKPKDVYKNRSIELVQQQNVQLSLTEATEKAKQEFEKAGKDFLVETIKLGKLLRPNHLWGYYLFPDCYNHHYKKPGYNGSCFNVEIKRNDDLSWLWNESTALYPSIYLNTQQSPVAATLYVRNRVREAIRVSKIPDAKSPLPVFAYTRIVFTDQVLKFLSQDELVYTFGETVALGASGIVIWGTLSIMRSMKSCLLLDNYMETILNPYIINVTLAAKMCSQVLCQEQGVCIRKNWNSSDYLHLNPDNFAIQLEKGGKFTVRGKPTLEDLEQFSEKFYCSCYSTLSCKEKADVKDTDAVDVCIADGVCID
chain 2: LNFRAPPVIPNVPFLWAWNAPSEFCLGKFDEPLDMSLFSFIGSPRINATGQGVTIFYVDRLGYYPYIDSITGVTVNGGIPQKISLQDHLDKAKKDITFYMPVDNLGMAVIDWEEWRPTWARNWKPKDVYKNRSIELVQQQNVQLSLTEATEKAKQEFEKAGKDFLVETIKLGKLLRPNHLWGYYLFPDCYNHHYKKPGYNGSCFNVEIKRNDDLSWLWNESTALYPSIYLNTQQSPVAATLYVRNRVREAIRVSKIPDAKSPLPVFAYTRIVFTDQVLKFLSQDELVYTFGETVALGASGIVIWGTLSIMRSMKSCLLLDNYMETILNPYIINVTLAAKMCSQVLCQEQGVCIRKNWNSSDYLHLNPDNFAIQLEKGGKFTVRGKPTLEDLEQFSEKFYCSCYSTLSCKEKADVKDTDAVDVCIADGVCID
modifications: HuPH20 precursor 1-466; Mature HuPH20 36-466
As to B2, in the data set on CHO-S cells, the “Expressed in Media” value is recorded as “YES”. In data set [1], the “pH 5.5 Activity” value is reported as 0.2115 Units/ml and the “pH 7.4 Activity” value is 0 Units/ml.

The values are drawn from patent US9284543B2, “Neutral active soluble truncated PH20 polypeptides and uses thereof” (Halozyme, Inc., priority 2008, dated 2016).
